Data from PMC9352680, “A comprehensive thermodynamic model for RNA binding by the Saccharomyces cerevisiae Pumilio protein PUF4”.

B1: Id_ii_S2_P4E.4_K4.3_C4.2_H4.3_A4.1_F4.1_T4.2_[G10T] (ssRNA)
RNA: UUUGAUUAAUAUGAUAUCGUUCUUUCUCUACACUAUUAUUUUCUUUCUCGAUAUCAUAUUAAUCUUU
B2: Id_ii_S2_P4E.4_K4.3_C4.2_H4.3_A4.1_F4.1_T4.2_[T11C] (ssRNA)
RNA: UUUGAUUAAUAUGAUAUCGUUCUUUCUCUACACUAUUAGCUUCUUUCUCGAUAUCAUAUUAAUCUUU
B3: Id_ii_S2_P4E.4_K4.3_C4.2_H4.3_A4.1_F4.1_T4.2 (ssRNA)
RNA: UUUGAUUAAUAUGAUAUCGUUCUUUCUCUACACUAUUAGUUUCUUUCUCGAUAUCAUAUUAAUCUUU
B4: Id_ii_S2_P4E.4_K4.3_C4.2_H4.3_A4.1_F4.1_T4.2_[G10A] (ssRNA)
RNA: UUUGAUUAAUAUGAUAUCGUUCUUUCUCUACACUAUUAAUUUCUUUCUCGAUAUCAUAUUAAUCUUU
B5: Id_ii_S2_P5E.2_K5.1_C5.2_[C-2G]_[T-1C]_H5.1_A5.1_F5.1_T5.2_[T11A]_[A12C] (ssRNA)
RNA: UUUGAUUAAUAUGAUAUCGUUCUUUCUGCUGUAUUAUUAACUUCUUUCUCGAUAUCAUAUUAAUCUUU
B6: Id_ii_S2_P5E.2_K5.1_C5.2_[C-2T]_[T-1C]_H5.1_A5.1_F5.1_T5.2_[T11A]_[A12C] (ssRNA)
RNA: UUUGAUUAAUAUGAUAUCGUUCUUUCUUCUGUAUUAUUAACUUCUUUCUCGAUAUCAUAUUAAUCUUU
B7: Id_ii_S2_P5E.2_K5.1_C5.2_[C-2T]_[T-1A]_H5.1_A5.1_F5.1_T5.2_[T11G]_[A12T] (ssRNA)
RNA: UUUGAUUAAUAUGAUAUCGUUCUUUCUUAUGUAUUAUUAGUUUCUUUCUCGAUAUCAUAUUAAUCUUU
B8: Id_ii_S2_P5E.2_K5.1_C5.2_[C-2T]_[T-1A]_H5.1_A5.1_F5.1_T5.2_[T11A] (ssRNA)
RNA: UUUGAUUAAUAUGAUAUCGUUCUUUCUUAUGUAUUAUUAAAUUCUUUCUCGAUAUCAUAUUAAUCUUU
B9: Id_ii_S2_P5E.2_K5.1_C5.2_[C-2G]_H5.1_A5.1_F5.1_T5.2_[A12C] (ssRNA)
RNA: UUUGAUUAAUAUGAUAUCGUUCUUUCUGUUGUAUUAUUAUCUUCUUUCUCGAUAUCAUAUUAAUCUUU
B10: Id_ii_S2_P5E.2_K5.1_C5.2_[C-2G]_[T-1C]_H5.1_A5.1_F5.1_T5.2_[T11A] (ssRNA)
RNA: UUUGAUUAAUAUGAUAUCGUUCUUUCUGCUGUAUUAUUAAAUUCUUUCUCGAUAUCAUAUUAAUCUUU
B11: Id_ii_S2_P5E.2_K5.1_C5.2_[C-2T]_[T-1A]_H5.1_A5.1_F5.1_T5.2_[A12C] (ssRNA)
RNA: UUUGAUUAAUAUGAUAUCGUUCUUUCUUAUGUAUUAUUAUCUUCUUUCUCGAUAUCAUAUUAAUCUUU
B12: Id_ii_S2_P5E.2_K5.1_C5.2_[C-2T]_[T-1A]_H5.1_A5.1_F5.1_T5.2_[A12T] (ssRNA)
RNA: UUUGAUUAAUAUGAUAUCGUUCUUUCUUAUGUAUUAUUAUUUUCUUUCUCGAUAUCAUAUUAAUCUUU
B13: Id_ii_S2_P5E.2_K5.1_C5.2_[C-2T]_[T-1G]_H5.1_A5.1_F5.1_T5.2_[T11A]_[A12T] (ssRNA)
RNA: UUUGAUUAAUAUGAUAUCGUUCUUUCUUGUGUAUUAUUAAUUUCUUUCUCGAUAUCAUAUUAAUCUUU
B14: Id_ii_S2_P5E.2_K5.1_C5.2_[C-2T]_[T-1G]_H5.1_A5.1_F5.1_T5.2_[T11A] (ssRNA)
RNA: UUUGAUUAAUAUGAUAUCGUUCUUUCUUGUGUAUUAUUAAAUUCUUUCUCGAUAUCAUAUUAAUCUUU
B15: Id_ii_S2_P5E.2_K5.1_C5.2_[C-2T]_[T-1G]_H5.1_A5.1_F5.1_T5.2_[A12T] (ssRNA)
RNA: UUUGAUUAAUAUGAUAUCGUUCUUUCUUGUGUAUUAUUAUUUUCUUUCUCGAUAUCAUAUUAAUCUUU
B16: Id_ii_S2_P5E.2_K5.1_C5.2_[C-2T]_[T-1G]_H5.1_A5.1_F5.1_T5.2_[T11G]_[A12C] (ssRNA)
RNA: UUUGAUUAAUAUGAUAUCGUUCUUUCUUGUGUAUUAUUAGCUUCUUUCUCGAUAUCAUAUUAAUCUUU
B17: Id_ii_S2_P5E.2_K5.1_C5.2_[C-2T]_[T-1G]_H5.1_A5.1_F5.1_T5.2_[A12C] (ssRNA)
RNA: UUUGAUUAAUAUGAUAUCGUUCUUUCUUGUGUAUUAUUAUCUUCUUUCUCGAUAUCAUAUUAAUCUUU
B18: Id_ii_S2_P5E.2_K5.1_C5.2_[C-2G]_[T-1C]_H5.1_A5.1_F5.1_T5.2_[T11A]_[A12T] (ssRNA)
RNA: UUUGAUUAAUAUGAUAUCGUUCUUUCUGCUGUAUUAUUAAUUUCUUUCUCGAUAUCAUAUUAAUCUUU
B19: Id_ii_S2_P5E.2_K5.1_C5.2_[C-2T]_[T-1C]_H5.1_A5.1_F5.1_T5.2_[A12C] (ssRNA)
RNA: UUUGAUUAAUAUGAUAUCGUUCUUUCUUCUGUAUUAUUAUCUUCUUUCUCGAUAUCAUAUUAAUCUUU
B20: Id_ii_S2_P5E.2_K5.1_C5.2_[C-2T]_[T-1C]_H5.1_A5.1_F5.1_T5.2_[A12G] (ssRNA)
RNA: UUUGAUUAAUAUGAUAUCGUUCUUUCUUCUGUAUUAUUAUGUUCUUUCUCGAUAUCAUAUUAAUCUUU
B21: Id_ii_S2_P5E.2_K5.1_C5.2_[C-2G]_[T-1C]_H5.1_A5.1_F5.1_T5.2_[A12C] (ssRNA)
RNA: UUUGAUUAAUAUGAUAUCGUUCUUUCUGCUGUAUUAUUAUCUUCUUUCUCGAUAUCAUAUUAAUCUUU
B22: Id_ii_S2_P5E.2_K5.1_C5.2_[C-2T]_[T-1C]_H5.1_A5.1_F5.1_T5.2_[T11A]_[A12G] (ssRNA)
RNA: UUUGAUUAAUAUGAUAUCGUUCUUUCUUCUGUAUUAUUAAGUUCUUUCUCGAUAUCAUAUUAAUCUUU
B23: Id_ii_S2_P5E.2_K5.1_C5.2_[C-2G]_H5.1_A5.1_F5.1_T5.2_[T11A]_[A12T] (ssRNA)
RNA: UUUGAUUAAUAUGAUAUCGUUCUUUCUGUUGUAUUAUUAAUUUCUUUCUCGAUAUCAUAUUAAUCUUU
B24: Id_ii_S2_P5E.2_K5.1_C5.2_[C-2T]_[T-1C]_H5.1_A5.1_F5.1_T5.2_[T11A] (ssRNA)
RNA: UUUGAUUAAUAUGAUAUCGUUCUUUCUUCUGUAUUAUUAAAUUCUUUCUCGAUAUCAUAUUAAUCUUU
B25: Id_ii_S2_P5E.2_K5.1_C5.2_[C-2G]_[T-1C]_H5.1_A5.1_F5.1_T5.2_[A12T] (ssRNA)
RNA: UUUGAUUAAUAUGAUAUCGUUCUUUCUGCUGUAUUAUUAUUUUCUUUCUCGAUAUCAUAUUAAUCUUU
B26: Id_ii_S2_P5E.2_K5.1_C5.2_[C-2T]_H5.1_A5.1_F5.1_T5.2_[T11G]_[A12T] (ssRNA)
RNA: UUUGAUUAAUAUGAUAUCGUUCUUUCUUUUGUAUUAUUAGUUUCUUUCUCGAUAUCAUAUUAAUCUUU
B27: Id_ii_S2_P5E.2_K5.1_C5.2_[C-2T]_[T-1A]_H5.1_A5.1_F5.1_T5.2_[T11A]_[A12C] (ssRNA)
RNA: UUUGAUUAAUAUGAUAUCGUUCUUUCUUAUGUAUUAUUAACUUCUUUCUCGAUAUCAUAUUAAUCUUU
B28: Id_ii_S2_P5E.2_K5.1_C5.2_[C-2T]_[T-1C]_H5.1_A5.1_F5.1_T5.2_[A12T] (ssRNA)
RNA: UUUGAUUAAUAUGAUAUCGUUCUUUCUUCUGUAUUAUUAUUUUCUUUCUCGAUAUCAUAUUAAUCUUU
B29: Id_ii_S2_P5E.2_K5.1_C5.2_[C-2G]_H5.1_A5.1_F5.1_T5.2_[T11G]_[A12T] (ssRNA)
RNA: UUUGAUUAAUAUGAUAUCGUUCUUUCUGUUGUAUUAUUAGUUUCUUUCUCGAUAUCAUAUUAAUCUUU
B30: Id_ii_S2_P5E.2_K5.1_C5.2_[C-2T]_H5.1_A5.1_F5.1_T5.2_[T11A]_[A12T] (ssRNA)
RNA: UUUGAUUAAUAUGAUAUCGUUCUUUCUUUUGUAUUAUUAAUUUCUUUCUCGAUAUCAUAUUAAUCUUU
B31: Id_ii_S2_P5E.2_K5.1_C5.2_[C-2G]_H5.1_A5.1_F5.1_T5.2_[A12T] (ssRNA)
RNA: UUUGAUUAAUAUGAUAUCGUUCUUUCUGUUGUAUUAUUAUUUUCUUUCUCGAUAUCAUAUUAAUCUUU
B32: Id_ii_S2_P5E.2_K5.1_C5.2_[C-2T]_H5.1_A5.1_F5.1_T5.2_[T11A] (ssRNA)
RNA: UUUGAUUAAUAUGAUAUCGUUCUUUCUUUUGUAUUAUUAAAUUCUUUCUCGAUAUCAUAUUAAUCUUU

biological target: T1, PUF4 RNA-binding domain (Saccharomyces cerevisiae, UniProt P25339 537-888); assay: Mg; RNA-MaP; 20 mM Na-HEPES pH 7.4, 30 mM KOAc, 0.75 mM MgCl2, 0.1% Tween-20, 5% glycerol, 0.1 mg/mL BSA, 2 mM DTT; 25 C; 0.0125-409.6 nM protein; settings: tags: N-His6-TEV cleaved; C-SNAP kept, Cy3B-labelled; label: tethered on chip by stalled RNA polymerase
T1 sequence: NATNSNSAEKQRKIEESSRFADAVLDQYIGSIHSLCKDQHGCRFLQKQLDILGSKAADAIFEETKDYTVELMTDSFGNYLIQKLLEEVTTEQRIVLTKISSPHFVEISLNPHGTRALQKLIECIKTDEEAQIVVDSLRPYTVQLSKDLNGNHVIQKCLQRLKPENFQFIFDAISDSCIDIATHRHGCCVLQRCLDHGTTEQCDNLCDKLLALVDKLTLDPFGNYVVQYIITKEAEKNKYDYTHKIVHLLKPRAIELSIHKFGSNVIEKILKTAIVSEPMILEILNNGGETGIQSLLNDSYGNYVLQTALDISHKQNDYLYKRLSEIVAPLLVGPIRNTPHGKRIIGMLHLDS

| Binder | Kd |
| --- | --- |
| B1 | 528 nM |
| B2 | 1620 nM |
| B3 | > 2300 nM |
| B4 | 498 nM |
| UCUCUUUGUAUAAGUAUCUCUU (ssRNA) [Ic_S1_P5E.1_K5.1_C5.1_H5.1_A5.1_[T6A]_F5.1_[T8G]_T5.1] | 54 nM |
| UCUCUUUGUAUCAGUAUCUCUU (ssRNA) [Ib_S1_P5E.1_K5.1_C5.1_H5.1_A5.1_[T6C]_F5.1_[T8G]_T5.1] | 27.9 nM |
| UCUCUUUGUAAUAAUAUCUCUU (ssRNA) [Ib_S1_P5E.1_K5.1_C5.1_H5.1_A5.1_[T5A]_F5.1_[T8A]_T5.1] | 17.8 nM |
| B5 | 25.4 nM |
| B6 | 4.08 nM |
| B7 | 4.78 nM |
| B8 | 12.2 nM |
| B9 | 18.8 nM |
| B10 | 7.06 nM |
| B11 | 4.16 nM |
| B12 | 2.85 nM |
| B13 | 1.41 nM |
| B14 | 1.72 nM |
| B15 | 1.42 nM |

| Binder | Kd |
| --- | --- |
| B16 | 2.9 nM |
| B17 | 1.84 nM |
| B18 | 3.35 nM |
| B19 | 2.98 nM |
| B20 | 3.04 nM |
| B21 | 11.2 nM |
| B22 | 51 nM |
| B23 | 3.86 nM |
| B24 | 4.24 nM |
| B25 | 3.07 nM |
| B26 | 3.67 nM |
| B27 | 8.24 nM |
| B28 | 1.5 nM |
| B29 | 3.05 nM |
| B30 | 3.17 nM |
| B31 | 2.47 nM |
| B32 | 5.96 nM |
